In experiment [1] the target is cynomolgus monkey CD96 on activated primary cynomolgus T cells (cynomolgus monkey). Nature of the experiment: flow cytometry (MFI against concentration), activated primary cynomolgus T cells. (A flow cytometer gives signals particle by particle.)
Experiment [2] concerns the target full-length isoform 1 of human CD96 (SEQ ID NO: 127) expressed on CHO cells (human) (UniProt P40200). As to the kind of experiment: flow cytometry (MFI against concentration), CHO cells expressing human CD96 isoform 1.
Experiment [3] deals with full-length isoform 2 of human CD96 (SEQ ID NO: 128) expressed on cells (human) (UniProt P40200). Nature of the experiment: flow cytometry (MFI against concentration), CHO cells expressing human CD96 isoform 2.
Experiment [4] shares this target. As to the kind of experiment: flow cytometry (MFI against concentration), Jurkat cells expressing human CD96 isoform 2.
Experiment [5] deals with isoform 2 of cynomolgus monkey CD96 (SEQ ID NO: 133) expressed on CHO cells (cynomolgus monkey). As to the kind of experiment: flow cytometry (MFI against concentration), CHO cells expressing cynomolgus CD96 isoform 2.

Take IgG1 isotype control antibody: the Area under the curve (AUC) was determined as 1270 in experiment [1]; 43500 in experiment [2]; 5810 in experiment [3]; 4760 in experiment [4]; 6030 in experiment [5].

These data come from US20210101977A1.
